In patent US6383734:

T1: Raf-1 (331-345) peptide
T1 chain: RPRGQRDSSFFWEIE


Columns and labels:
Raf-1 (331-345) peptide = biological target: T1, Raf-1 (331-345) peptide
[1] = biological target: Raf-CR3 (wild type), recombinant Raf-1 catalytic fragment, calmodulin binding protein fusion, P04049
[2] = biological target: Raf-CR3[A338A339], P04049
[3] = biological target: Raf-CR3[D338E339], P04049

Row | Protein | phosphorylation of the Raf-1 peptide (Raf-1 (331-345) peptide) | phosphorylation of Raf-CR3 [1] | phosphate incorporation into Raf-CR3 [2] | phosphate incorporation into Raf-CR3 [3] | phosphate incorporation into Raf-CR3 [1]
1 | recombinant His-tagged mouse PAK3 from Sf9 cells (protein) MSDSLDNEEKPPAPPLRMNSNNRDSSALNHSSKPLPMAPEEKNKKARLRSIFPGGGDKTNKKKEKERPEISLPSDFEHTIHVGFDAVTGEFTGIPEQWARLLQTSNITKLEQKKNPQAVLDVLKFYDSKETVNNQKYMSFTSGDKSAHGYIAAHQSNTKTASEPPLAPPVSEEEDEEEEEEEDDNEPPPVIAPRPEHTKSIYTRSVVESIASPAAPNKEDIPPSAENANSTTLYRNTDRQRKKSKMTDEEILEKLRSIVSVGDPKKKYTRFEKIGQGASGTVYTALDIATGQEVAIKQMNLQQQPKKELIINEILVMRENKNPNIVNYLDSYLVGDELWVVMEYLAGGSLTDVVTETCMDEGQIAAVCRECLQALDFLHSNQVIHRDIKSDNILLGMDGSVKLTDFGFCAQITPEQSKRSTMVGTPYWMAPEVVTRKAYGPKVDIWSLGIMAIEMVEGEPPYLNENPLRALYLIATNGTPELQNPERLSAVFRDFLNRCLEMDVDRRGSAKELLQHPFLKLAKPLSSLTPLIIAAKEAIKNSSR | Recombinant His-tagged mouse PAK3 from Sf9 cells phosphorylated the Raf-1 peptide | strongly phosphorylated wild type Raf-CR3 | – | – | –
2 | full-length PAK3 from rat spleen lysate (protein) SDNGELEDKPPAPPVRMSSTIFSTGGKDPLSANHSLKPLPSVPEEKKPRNKIISIFSSTEKGSKKKEKERPEISPPSDFEHTIHVGFDAVTGEFTGMPEQWARLLQTSNITKLEQKKNPQAVLDVLKFYDSNTVKQKYLSFTPPEKDGFPSGTPALNTKGSETSAVVTEEDDDDEDAAPPVIAPRPDHTKSIYTRSVIDPIPAPVGDSNVDSGAKSSDKQKKKAKMTDEEIMEKLRTIVSIGDPKKKYTRYEKIGQGASGTVFTATDVALGQEVAIKQINLQKQPKKELIINEILVMKELKNPNIVNFLDSYLVGDELFVVMEYLAGGSLTDVVTETCMDEAQIAAVCRECLQALEFLHANQVIHRDIKSDNVLLGMEGSVKLTDFGFCAQITPEQSKRSTMVGTPYWMAPEVVTRKAYGPKVDIWSLGIMAIEMVEGEPPYLNENPLRALYLIATNGTPELQNPEKLSPIFRDFLNRCLEMDVEKRGSAKELLQHPFLKLAKPLSSLTPLILAAKEAMKSNR | – | – | reduced ability of immunoprecipitated PAK3 to phosphorylate the Raf-CR3[A338,A339] or Raf-CR3[D338,E339] mutant proteins | reduced ability of immunoprecipitated PAK3 to phosphorylate the Raf-CR3[A338,A339] or Raf-CR3[D338,E339] mutant proteins | 4-fold more phosphate into wild type Raf-CR3 than into the non-phosphorylatable Raf-CR3[D338E339] or Raf-CR3[A338A339] site mutants
